{
  "source": "paper PMC5389731",
  "about": "(Nucleic Acids Research, 2017)",
  "binders": {"B1": {"name": "antitoxin CcdA2 (F plasmid CcdA dimer, full length) (natural protein, E. coli F plasmid, UniProt P62552 1-72, looked up)", "chain": "MKQRITVTVDSDSYQLLKAYDVNISGLVSTTMQNEARRLRAERWKAENQEGMAEVARFIEMNGSFADENRDW"}, "B2": {"name": "Ccd3 (3 binding sites) (dsDNA)", "DNA 1": "ACGTGCGGTATAAGAATATATACTGATATGTATACCCGAATA", "DNA 2": "TATTCGGGTATACATATCAGTATATATTCTTATACCGCACGT"}, "B3": {"name": "CcdITC (3 binding sites) (dsDNA)", "DNA 1": "GCGGTATAAGAATATATACTGATATGTATACCC", "DNA 2": "GGGTATACATATCAGTATATATTCTTATACCGC"}, "B4": {"name": "Random (dsDNA)", "DNA 1": "TGCCCAAGTGATGCTAAACAAGACTTAGCTGGTTCCTGTGTT", "DNA 2": "AACACAGGAACCAGCTAAGTCTTGTTTAGCATCACTTGGGCA"}},
  "key": {"[1]": {"biological_target": "T1, toxin CcdB2 (F plasmid CcdB dimer) (E. coli F plasmid, UniProt P62554 1-101)", "experiment": "ITC"}, "[2]": {"biological_target": "T2, CcdA2 (antitoxin dimer);CcdB2 (toxin dimer) (Escherichia coli (F …, UniProt P62552;P62554 1-72;1-101, |))", "experiment": "EMSA"}, "[3]": {"biological_target": "T1, toxin CcdB2 (F plasmid CcdB dimer)", "experiment": "ITC", "remark": "listed apart in the source"}, "[4]": {"biological_target": "T2, CcdA2 (antitoxin dimer);CcdB2 (toxin …)", "experiment": "ITC"}, "[5]": {"biological_target": "T2, CcdA2 (antitoxin dimer);CcdB2 (toxin …)", "experiment": "EMSA", "remark": "listed apart in the source"}},
  "data": [
    {"binder": "B1", "values": [
      {"measurement": "difference between the high and low affinity binding constants", "setting": "[1]", "value": "~1e+06", "unit": "fold"}
    ]},
    {"binder": "B2", "values": [
      {"measurement": "binding result", "setting": "[2]", "value": "binds"}
    ]},
    {"binder": "RRLRAERWKAENQEGMAEVARFIEMNGSFADENRDW (peptide, UniProt P62552 37-72, looked up)", "note": "[CcdAC, truncated CcdA comprising the entire C-terminal domain (CcdA^37-72)]", "values": [
      {"measurement": "binding result", "setting": "[3]", "value": "binds"}
    ]},
    {"binder": "B3", "values": [
      {"measurement": "binding result", "setting": "[4]", "value": "binds"}
    ]},
    {"binder": "B4", "values": [
      {"measurement": "binding result", "setting": "[5]", "value": "no binding"}
    ]}
  ]
}
